Where no end group is shown, it is not given here. [ ]: non-standard residue; d: D form. pS = N[C@@H](COP(=O)(O)O)C(=O)O

Assay [1] deals with cyclin-dependent kinase 2/cyclin A2 (CDK2/A2) (Homo sapiens, UniProt P24941). In words: In vitro phosphorylation of nucleocapsid peptides, ADP-Glo, CDK2/cyclin A2. The class given is biochemical. As to conditions: peptide ~250 μM, 250 μM ATP, 30 min at 30° C.; duplicate measurements.
The target in another assay is T1, casein kinase 1-delta (Homo sapiens, UniProt P48730).
T1 construct: GST; purchased SignalChem C65-10G
T1 sequence (P48730 whole entry): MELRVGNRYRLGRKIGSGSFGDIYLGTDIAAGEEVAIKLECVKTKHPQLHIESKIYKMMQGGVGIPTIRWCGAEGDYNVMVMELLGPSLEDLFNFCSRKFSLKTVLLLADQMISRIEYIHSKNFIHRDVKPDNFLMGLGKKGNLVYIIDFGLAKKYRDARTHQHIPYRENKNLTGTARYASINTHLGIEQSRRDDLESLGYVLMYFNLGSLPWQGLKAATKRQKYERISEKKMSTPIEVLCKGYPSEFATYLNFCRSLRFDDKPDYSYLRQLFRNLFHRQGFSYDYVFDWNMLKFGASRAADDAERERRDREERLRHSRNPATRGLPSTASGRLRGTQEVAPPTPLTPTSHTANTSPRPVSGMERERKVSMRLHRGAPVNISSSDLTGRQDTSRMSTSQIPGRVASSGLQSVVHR
In words: In vitro phosphorylation of nucleocapsid peptides, ADP-Glo, CK1d. The class given is biochemical. Conditions: peptide ~250 μM, 250 μM ATP, 30 min at 30° C.; duplicate measurements. A general note: In ADP-Glo the light output rises with the ADP produced.

In assay [2] the target is T2, casein kinase 1-gamma-1 (CK1γ1) (Homo sapiens, UniProt Q9HCP0).
T2 construct: GST; purchased SignalChem C68-11G
T2 sequence (Q9HCP0 whole entry): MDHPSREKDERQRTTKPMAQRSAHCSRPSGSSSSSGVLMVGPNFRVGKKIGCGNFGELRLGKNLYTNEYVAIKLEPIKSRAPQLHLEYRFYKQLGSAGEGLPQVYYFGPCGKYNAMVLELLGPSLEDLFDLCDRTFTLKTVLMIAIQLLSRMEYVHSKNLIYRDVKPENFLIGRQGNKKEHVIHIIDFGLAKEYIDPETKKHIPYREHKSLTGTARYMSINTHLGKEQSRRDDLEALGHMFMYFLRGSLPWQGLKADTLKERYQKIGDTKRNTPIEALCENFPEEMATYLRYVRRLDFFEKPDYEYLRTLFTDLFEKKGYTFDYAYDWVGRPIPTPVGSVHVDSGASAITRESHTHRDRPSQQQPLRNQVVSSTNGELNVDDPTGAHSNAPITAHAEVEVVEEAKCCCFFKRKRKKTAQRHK
Nature of the assay: In vitro phosphorylation of nucleocapsid peptides, ADP-Glo, CK1g1. Type of assay: biochemical. Conditions: peptide ~250 μM, 250 μM ATP, 30 min at 30° C.; duplicate measurements.

The target of assay [3] is T3, extracellularly-regulated kinase-1 (ERK1) (Homo sapiens, UniProt P27361).
T3 construct: GST; purchased SignalChem M29-10G
T3 sequence (P27361 whole entry): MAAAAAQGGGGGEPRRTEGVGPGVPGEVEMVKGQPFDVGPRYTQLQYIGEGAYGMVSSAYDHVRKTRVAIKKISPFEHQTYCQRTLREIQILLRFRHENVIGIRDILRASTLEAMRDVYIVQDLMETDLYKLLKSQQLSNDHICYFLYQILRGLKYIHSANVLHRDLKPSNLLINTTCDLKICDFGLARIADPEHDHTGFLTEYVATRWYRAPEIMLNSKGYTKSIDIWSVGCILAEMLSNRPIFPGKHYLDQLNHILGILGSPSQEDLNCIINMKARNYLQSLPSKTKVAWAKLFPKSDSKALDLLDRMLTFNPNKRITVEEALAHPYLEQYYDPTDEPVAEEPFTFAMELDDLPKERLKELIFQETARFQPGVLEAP
In words: In vitro phosphorylation of nucleocapsid peptides, ADP-Glo, ERK1. The class given is biochemical. As to conditions: peptide ~250 μM, 250 μM ATP, 30 min at 30° C.; duplicate measurements.

Assay [4] addresses T4, glycogen synthase kinase-3-beta (Homo sapiens, UniProt P49841).
T4 construct: GST; purchased SignalChem Go9-10G
Nature of the assay: In vitro phosphorylation of nucleocapsid peptides, ADP-Glo, GSK3b. The class given is biochemical. As to conditions: for Relative Phosphorylation to No Kinase Control, GSK3b: Mean ± S.Dev. (n = 3), no kinase control = 100; for Relative Phosphorylation to Autophosphorylation Control (set at 100), GSK3b: peptide ~250 μM, 250 μM ATP, 30 min at 30° C., duplicate measurements.

Assay [5] has as its target cAMP-dependent protein kinase catalytic subunit-alpha (PKACa) (Homo sapiens, UniProt P17612). In words: In vitro phosphorylation of nucleocapsid peptides, ADP-Glo, PKACa. Type of assay: biochemical. As to conditions: peptide ~250 μM, 250 μM ATP, 30 min at 30° C.; duplicate measurements.
The target in assay [6] is T5, protein kinase C-alpha (PKC α) (Homo sapiens, UniProt P17252).
T5 construct: GST; purchased SignalChem P61-18G
In words: In vitro phosphorylation of nucleocapsid peptides, ADP-Glo, PKCa. Type of assay: biochemical. Conditions: Mean ± S.Dev. (n = 3); no kinase control = 100.

Another assay deals with PKCa + GSK3b. Nature of the assay: In vitro phosphorylation of nucleocapsid peptides, ADP-Glo, PKCa + GSK3b combined. Type of assay: biochemical, human. Conditions: Mean ± S.Dev. (n = 3); no kinase control = 100.

T4 sequence (P49841 whole entry): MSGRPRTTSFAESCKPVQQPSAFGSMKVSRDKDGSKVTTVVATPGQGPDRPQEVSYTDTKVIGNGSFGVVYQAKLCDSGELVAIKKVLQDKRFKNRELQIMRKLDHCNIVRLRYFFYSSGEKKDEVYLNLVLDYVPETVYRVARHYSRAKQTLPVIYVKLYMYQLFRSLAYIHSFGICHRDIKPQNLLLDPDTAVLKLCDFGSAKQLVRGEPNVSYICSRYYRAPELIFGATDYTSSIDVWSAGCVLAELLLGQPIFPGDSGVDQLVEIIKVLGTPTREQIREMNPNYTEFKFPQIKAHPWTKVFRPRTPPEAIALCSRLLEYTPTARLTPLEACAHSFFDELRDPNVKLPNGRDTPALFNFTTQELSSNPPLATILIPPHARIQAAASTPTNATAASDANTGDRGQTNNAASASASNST

On to “RNSTPGSSRGTSPAR [SCV2-N [195-209], synthetic peptide modeled after SARS-CoV-2 nucleocapsid protein phosphorylation sites]”, for which, in assay [1], the “Relative Phosphorylation to Autophosphorylation Control (set at 100), CDK2 + Cyclin A2” value stood at 104. The “Relative Phosphorylation to Autophosphorylation Control (set at 100), CK1d” value with casein kinase 1-delta was 101. In addition, the “Relative Phosphorylation to Autophosphorylation Control (set at 100), CK1g1” value in assay [2] was determined as 104. The “Relative Phosphorylation to Autophosphorylation Control (set at 100), ERK1” value in assay [3] was 102. In addition, in assay [4], the “Relative Phosphorylation to No Kinase Control, GSK3b” value amounted to 3291 ± 57 and the “Relative Phosphorylation to Autophosphorylation Control (set at 100), GSK3b” value was 137. Moreover, the “Relative Phosphorylation to Autophosphorylation Control (set at 100), PKACa” value in assay [5] was found to be 151. The “Relative Phosphorylation to No Kinase Control, PKCa” value in assay [6] is recorded as 3301 ± 114. Also, the “Relative Phosphorylation to No Kinase Control, PKCa + GSK3b” value in the assay with PKCa + GSK3b is recorded as 4262 ± 27.
Consider “RNSTPGSSRGT(pS)PAR (RNSTPGSSRGT[pS]PAR) [SCV2-N [195-209]-pS206, synthetic peptide modeled after SARS-CoV-2 nucleocapsid protein phosphorylation sites, pre-phosphorylated at S206]”, for which the “Relative Phosphorylation to Autophosphorylation Control (set at 100), CDK2 + Cyclin A2” value in assay [1] came out at 100. Further, in the assay with casein kinase 1-delta, the “Relative Phosphorylation to Autophosphorylation Control (set at 100), CK1d” value is listed as 105. Besides, the “Relative Phosphorylation to Autophosphorylation Control (set at 100), CK1g1” value in assay [2] was 105. Also, the “Relative Phosphorylation to Autophosphorylation Control (set at 100), ERK1” value in assay [3] was 100. In assay [4], the “Relative Phosphorylation to No Kinase Control, GSK3b” value is recorded as 24,082 ± 381 and the “Relative Phosphorylation to Autophosphorylation Control (set at 100), GSK3b” value turned out to be 1068. Besides, the “Relative Phosphorylation to Autophosphorylation Control (set at 100), PKACa” value in assay [5] was determined as 205. Besides, the “Relative Phosphorylation to No Kinase Control, PKCa” value in assay [6] was found to be 1531 ± 47.

(Values after patent US20250042887A1, “GLYCOGEN SYNTHASE KINASE-3 (GSK3) INHIBITOR COMPOUNDS FOR USE AS ANTIVIRAL AGENTS” (priority 2021, published 2025).)
